Experimental data from the supplement of paper PMC9112550, “Optimization of the antimicrobial peptide Bac7 by deep mutational scanning” (BMC Biology, 2022).

Tested on: Escherichia coli TOP10
Experiment: shrunken log2 fold change of peptide-encoding DNA abundance (4.5 h post-induction vs induction); higher = less antimicrobial activity (less host growth inhibition)
Conditions: time post-induction: 4.5 h; library: site-saturation at positions 5, 18, 19, 20
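Also: peptides expressed intracellularly from a pBAD plasmid library in pooled LB shake-flask culture, induced with 0.3% L-arabinose, DNA abundance read by NGS, three biological replicates, DESeq2 with apeglm shrinkage.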

Sequence | shrunken log2 fold change
RRIRMRPPRLPRPRPRPWGVPRP | 0.187
RRIRCRPPRLPRPRPRPYIDPRP | -1.39
RRIRARPPRLPRPRPRPYTSPRP | 0.0229
RRIRCRPPRLPRPRPRPYFNPRP | -1.04
RRIRTRPPRLPRPRPRPQNNPRP | -0.716
RRIRMRPPRLPRPRPRPPFRPRP | 0.693
RRIRVRPPRLPRPRPRPKIPPRP | 0.0285
RRIRFRPPRLPRPRPRPFCGPRP | -0.0609
RRIRARPPRLPRPRPRPQEFPRP | -0.0568
RRIRARPPRLPRPRPRPCNNPRP | -0.352
RRIRMRPPRLPRPRPRPDDNPRP | 2.27
RRIRHRPPRLPRPRPRPMPVPRP | -0.0266
RRIRFRPPRLPRPRPRPKWCPRP | -0.183
RRIRFRPPRLPRPRPRPETHPRP | -0.0779
RRIRNRPPRLPRPRPRPRRTPRP | 0.135
RRIRFRPPRLPRPRPRPPKDPRP | 0.248
RRIRPRPPRLPRPRPRPVGRPRP | 0.0963
RRIRKRPPRLPRPRPRPVAFPRP | 0.238
RRIRKRPPRLPRPRPRPCWPPRP | 0.0513
RRIRQRPPRLPRPRPRPRMWPRP | -0.429
RRIRQRPPRLPRPRPRPEKKPRP | -0.0138
RRIRHRPPRLPRPRPRPSVKPRP | -0.364
RRIRARPPRLPRPRPRPHIIPRP | -0.0334
RRIRHRPPRLPRPRPRPEPCPRP | 0.0696
RRIRGRPPRLPRPRPRPYQRPRP | 0.189

Sequence | shrunken log2 fold change
RRIRHRPPRLPRPRPRPRLMPRP | 0.121
RRIRGRPPRLPRPRPRPIRRPRP | 0.346
RRIRQRPPRLPRPRPRPKNTPRP | -0.394
RRIRERPPRLPRPRPRPIFQPRP | -0.00561
RRIRSRPPRLPRPRPRPHMDPRP | -0.427
RRIRTRPPRLPRPRPRPYHAPRP | -0.236
RRIRERPPRLPRPRPRPPEIPRP | 0.115
RRIRKRPPRLPRPRPRPWRDPRP | 0.188
RRIRDRPPRLPRPRPRPYFLPRP | -0.49
RRIRWRPPRLPRPRPRPVTVPRP | -0.194
RRIRRRPPRLPRPRPRPMLQPRP | -0.274
RRIRKRPPRLPRPRPRPLMIPRP | -0.171
RRIRFRPPRLPRPRPRPYLCPRP | -0.477
RRIRVRPPRLPRPRPRPLVAPRP | 0.196
RRIRRRPPRLPRPRPRPIPAPRP | 0.804
RRIRCRPPRLPRPRPRPHGHPRP | -0.167
RRIRARPPRLPRPRPRPSDWPRP | 0.402
RRIRIRPPRLPRPRPRPSYAPRP | -0.0605
RRIRTRPPRLPRPRPRPICCPRP | 0.0718
RRIRRRPPRLPRPRPRPIKQPRP | 0.197
RRIRNRPPRLPRPRPRPEQAPRP | 0.632
RRIRTRPPRLPRPRPRPLGGPRP | 0.137
RRIRLRPPRLPRPRPRPKAVPRP | -0.0189
RRIRWRPPRLPRPRPRPTGIPRP | 0.0938
RRIRIRPPRLPRPRPRPSVFPRP | -0.219

Sequence | shrunken log2 fold change
RRIRRRPPRLPRPRPRPLFCPRP | 0.24
RRIRKRPPRLPRPRPRPPIKPRP | 0.0648
RRIRPRPPRLPRPRPRPADYPRP | 0.0631
RRIRCRPPRLPRPRPRPIPIPRP | -0.0907
RRIRARPPRLPRPRPRPYYNPRP | -0.97
RRIRVRPPRLPRPRPRPQCCPRP | -0.185
RRIRSRPPRLPRPRPRPTCHPRP | 0.024
RRIRTRPPRLPRPRPRPRCAPRP | 0.0538
RRIRVRPPRLPRPRPRPCCPPRP | -0.25
RRIRIRPPRLPRPRPRPLAEPRP | -0.129
RRIRHRPPRLPRPRPRPDKEPRP | -0.00149
RRIRARPPRLPRPRPRPYTHPRP | -0.373
RRIRPRPPRLPRPRPRPPEIPRP | -0.0297
RRIRDRPPRLPRPRPRPFTDPRP | 0.00624
RRIRVRPPRLPRPRPRPQVNPRP | -0.795
RRIRCRPPRLPRPRPRPEMAPRP | 0.532
RRIRTRPPRLPRPRPRPTEHPRP | -0.106
RRIRHRPPRLPRPRPRPLWFPRP | -0.00823
RRIRTRPPRLPRPRPRPGNAPRP | -0.0554
RRIRNRPPRLPRPRPRPQDTPRP | -0.0984
RRIRPRPPRLPRPRPRPALSPRP | 0.139
RRIRRRPPRLPRPRPRPNITPRP | -0.128
RRIRKRPPRLPRPRPRPYWFPRP | 0.00102
RRIRDRPPRLPRPRPRPCYTPRP | -0.295
RRIRVRPPRLPRPRPRPVVCPRP | 0.251

Sequence | shrunken log2 fold change
RRIRFRPPRLPRPRPRPEELPRP | 0.0201
RRIRDRPPRLPRPRPRPNEHPRP | -0.0707
RRIRPRPPRLPRPRPRPFGIPRP | -0.21
RRIRTRPPRLPRPRPRPRRYPRP | 0.108
RRIRDRPPRLPRPRPRPQRKPRP | 0.0137
RRIRIRPPRLPRPRPRPNDPPRP | -0.19
RRIRRRPPRLPRPRPRPESTPRP | 0.571
RRIRFRPPRLPRPRPRPHYHPRP | -0.834
RRIRERPPRLPRPRPRPCMLPRP | -0.241
RRIRDRPPRLPRPRPRPKPEPRP | 0.0415
RRIRVRPPRLPRPRPRPCDFPRP | 0.0154
RRIRHRPPRLPRPRPRPWPWPRP | 0.199
RRIRWRPPRLPRPRPRPRQQPRP | -0.0369
RRIRSRPPRLPRPRPRPEGRPRP | -0.0898
RRIRSRPPRLPRPRPRPTMCPRP | -0.0421
RRIRERPPRLPRPRPRPMYFPRP | -0.251
RRIRKRPPRLPRPRPRPVPVPRP | 0.253
RRIRIRPPRLPRPRPRPTSPPRP | 0.118
RRIRVRPPRLPRPRPRPKGIPRP | -0.115
RRIRLRPPRLPRPRPRPFMGPRP | -0.141
RRIRQRPPRLPRPRPRPIPGPRP | -0.309
RRIRCRPPRLPRPRPRPIEPPRP | 0.159
RRIRHRPPRLPRPRPRPKHEPRP | -0.156
RRIRYRPPRLPRPRPRPHKKPRP | -0.0787
RRIRYRPPRLPRPRPRPTDEPRP | -0.00133

Sequence | shrunken log2 fold change
RRIRDRPPRLPRPRPRPKSPPRP | 0.0198
RRIRVRPPRLPRPRPRPHDAPRP | -0.141
RRIRYRPPRLPRPRPRPLKEPRP | 0.0179
RRIRMRPPRLPRPRPRPDAKPRP | 0.937
RRIRWRPPRLPRPRPRPWRGPRP | 0.389
RRIRSRPPRLPRPRPRPRRNPRP | 0.128
RRIRDRPPRLPRPRPRPSDNPRP | -0.0807
RRIRARPPRLPRPRPRPIYRPRP | -0.0972
RRIRFRPPRLPRPRPRPSENPRP | -0.458
RRIRDRPPRLPRPRPRPCKDPRP | -0.144
RRIRMRPPRLPRPRPRPLWIPRP | -0.00647
RRIRHRPPRLPRPRPRPYQFPRP | -0.0129
RRIRLRPPRLPRPRPRPKRYPRP | 0.0464
RRIRIRPPRLPRPRPRPHHNPRP | -0.0464
RRIRFRPPRLPRPRPRPFVMPRP | -1.05
RRIRWRPPRLPRPRPRPMKEPRP | -0.23
RRIRNRPPRLPRPRPRPGISPRP | 0.0154
RRIRERPPRLPRPRPRPIIAPRP | -0.106
RRIRMRPPRLPRPRPRPQVIPRP | -0.0579
RRIRPRPPRLPRPRPRPHSQPRP | -0.134
RRIRHRPPRLPRPRPRPHEWPRP | 0.00275
RRIRQRPPRLPRPRPRPDHQPRP | -0.126
RRIRWRPPRLPRPRPRPENPPRP | -0.0117
RRIRCRPPRLPRPRPRPHKLPRP | -0.436
RRIRIRPPRLPRPRPRPERIPRP | 0.0552
